Experimental data as given in paper doi:10.1101/2023.03.02.530905 (bioRxiv, 2023).

Molecular target: the molecule itself
Experiment: cross-linking

Row | Protein | stoichiometry N
1 | GM130 N122-oDi-his (other) MWPPRFPPPRPGMSEETRQSKLAAAKKKLREYQQKNSPGVPAGAKKKKKIKNGHSPERTSASDCQSAENVPTDHTAPAPPSTAAATMFLGVVPSPDADLIQSHDAGNCSNLMEETKTFSSTEGEIAALKQEIAALKKENAALKFEIAALKQG | 2
2 | GM130 N122-oTet-his (other) MWPPRFPPPRPGMSEETRQSKLAAAKKKLREYQQKNSPGVPAGAKKKKKIKNGHSPERTSASDCQSAENVPTDHTAPAPPSTAAATMFLGVVPSPDADLIQSHDAGNCSNLMEETKTFSSTEGELAAIKQELAAIKKELAAIKWELAAIKQG | 4
